These results are taken from PMC6691507 (Biochemistry, 2019).

This experiment deals with PAD2 D177A mutant, purified recombinant (human (from the printed UniProt entry …, UniProt Q9Y2J8 1-665, D177A)). Description: co-IP.
Chain of PAD2 D177A mutant, purified recombinant (human (Q9Y2J8 whole entry D177A): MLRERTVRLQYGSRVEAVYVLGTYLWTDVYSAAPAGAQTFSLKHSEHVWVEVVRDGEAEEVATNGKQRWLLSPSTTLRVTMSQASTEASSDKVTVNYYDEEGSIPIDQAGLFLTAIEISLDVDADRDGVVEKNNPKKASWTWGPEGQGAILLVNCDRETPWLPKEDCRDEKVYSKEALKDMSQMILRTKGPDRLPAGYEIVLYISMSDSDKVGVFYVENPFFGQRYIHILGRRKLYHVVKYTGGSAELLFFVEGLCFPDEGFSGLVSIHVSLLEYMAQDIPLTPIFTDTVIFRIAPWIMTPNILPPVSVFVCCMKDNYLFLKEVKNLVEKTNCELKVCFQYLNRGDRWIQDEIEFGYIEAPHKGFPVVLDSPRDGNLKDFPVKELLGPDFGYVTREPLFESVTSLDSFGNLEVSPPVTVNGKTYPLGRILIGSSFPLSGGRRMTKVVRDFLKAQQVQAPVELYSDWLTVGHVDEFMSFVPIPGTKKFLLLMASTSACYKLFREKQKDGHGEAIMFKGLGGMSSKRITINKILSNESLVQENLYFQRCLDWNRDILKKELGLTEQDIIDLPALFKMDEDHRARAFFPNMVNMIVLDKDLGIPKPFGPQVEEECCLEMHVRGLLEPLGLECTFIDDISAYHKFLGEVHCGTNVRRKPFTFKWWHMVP

B1: Annexin A5 (ANXA5), purified recombinant (natural protein, UniProt P08758 1-320, looked up)
chain: MAQVLRGTVTDFPGFDERADAETLRKAMKGLGTDEESILTLLTSRSNAQRQEISAAFKTLFGRDLLDDLKSELTGKFEKLIVALMKPSRLYDAYELKHALKGAGTNEKVLTEIIASRTPEELRAIKQVYEEEYGSSLEDDVVGDTSGYYQRMLVVLLQANRDPDAGIDEAQVEQDAQALFQAGELKWGTDEEKFITIFGTRSVSHLRKVFDKYMTISGFQIEETIDRETSGNLEQLLLAVVKSIRSIPAYLAETLYYAMKGAGTDDHTLIRVMVSRSEIDLFNIRKEFRKNFATSLYSMIKGDTSGDYKKALLLLCGEDD
Take B1: the binding result was “binds”.
